The values that follow come from publication PMC8429565, “Conformational rearrangements enable iterative backbone N-methylation in RiPP biosynthesis” (Nature Communications, 2021).

By stoichiometry N is commonly meant a count of units in the complex or per binding partner.

First the molecules themselves.
B1: his6-SonM, wild type, individually expressed (enzyme, Shewanella oneidensis MR-1, UniProt Q8EGW3 1-263, looked up)
chain: MGSLVCVGTGLQLAGQISVLSRSYIEHADIVFSLLPDGFSQRWLTKLNPNVINLQQFYAQNGEVKNRRDTYEQMVNAILDAVRAGKKTVCALYGHPGVFACVSHMAITRAKAEGFSAKMEPGISAEACLWADLGIDPGNSGHQSFEASQFMFFNHVPDPTTHLLLWQIAIAGEHTLTQFHTSSDRLQILVEQLNQWYPLDHEVVIYEAANLPIQAPRIERLPLANLPQAHLMPISTLLIPPAKKLEYNYAILAKLGIGPEDLG
notes: SonM (SO1478), α-N-methyltransferase of Shewanella oneidensis MR-1, 263 AA; gene sonM amplified from genomic DNA; also called wt; source: E. coli BL21(DE3), pET28b, purified (Ni-NTA or HisTrap, Superdex 200 SEC); not shown: His6, N-terminal, kept

Series [1] deals with the molecule itself. As to the kind of experiment: SEC; oligomeric state of individually expressed and purified SonM and SonA (Supplementary Fig. 6); Superdex 200 in 50 mM HEPES pH 8, 300 mM NaCl, 10% glycerol is the sizing step of the purification.
Series [2] concerns the target T1, his6-SonM-Y58F, individually expressed (Shewanella oneidensis MR-1, UniProt Q8EGW3 1-263, SonM-Y58F).
T1 sequence (looked up): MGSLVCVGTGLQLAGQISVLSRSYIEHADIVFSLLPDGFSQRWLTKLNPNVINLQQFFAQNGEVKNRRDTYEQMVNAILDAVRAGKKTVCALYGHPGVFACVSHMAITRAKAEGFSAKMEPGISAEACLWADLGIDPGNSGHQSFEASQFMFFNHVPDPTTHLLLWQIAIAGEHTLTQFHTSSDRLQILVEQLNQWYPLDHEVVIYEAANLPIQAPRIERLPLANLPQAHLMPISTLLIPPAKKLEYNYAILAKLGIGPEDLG
As to the kind of experiment: cell-based or functional assay.

For series [3], the target named is T2, his6-SonM-R67K, individually expressed (Shewanella oneidensis MR-1, UniProt Q8EGW3 1-263, SonM-R67K).
T2 sequence (looked up): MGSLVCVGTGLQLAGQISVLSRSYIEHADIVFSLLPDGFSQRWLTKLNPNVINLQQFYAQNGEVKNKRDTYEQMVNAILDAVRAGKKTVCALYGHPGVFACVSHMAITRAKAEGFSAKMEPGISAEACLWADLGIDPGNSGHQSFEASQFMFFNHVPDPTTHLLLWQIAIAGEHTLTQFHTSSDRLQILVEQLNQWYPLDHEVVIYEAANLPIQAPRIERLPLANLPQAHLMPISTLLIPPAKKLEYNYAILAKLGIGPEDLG
As to the kind of experiment: cell-based or functional assay.

The target in series [4] is T3, his6-SonM-Y71F, individually expressed (Shewanella oneidensis MR-1, UniProt Q8EGW3 1-263, SonM-Y71F).
T3 sequence (looked up): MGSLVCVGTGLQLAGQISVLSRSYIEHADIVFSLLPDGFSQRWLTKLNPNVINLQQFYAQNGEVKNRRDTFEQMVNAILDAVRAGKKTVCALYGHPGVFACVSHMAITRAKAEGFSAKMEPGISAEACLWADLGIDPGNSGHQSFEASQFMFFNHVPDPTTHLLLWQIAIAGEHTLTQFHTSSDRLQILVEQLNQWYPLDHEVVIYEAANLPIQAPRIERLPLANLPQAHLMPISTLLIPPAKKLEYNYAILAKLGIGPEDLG
As to the kind of experiment: cell-based or functional assay.

Series [5] addresses B1. As to the kind of experiment: cell-based or functional assay.
Series [6] has as its target T4, his6-SonM-Y93F, individually expressed (Shewanella oneidensis MR-1, UniProt Q8EGW3 1-263, SonM-Y93F).
T4 sequence (looked up): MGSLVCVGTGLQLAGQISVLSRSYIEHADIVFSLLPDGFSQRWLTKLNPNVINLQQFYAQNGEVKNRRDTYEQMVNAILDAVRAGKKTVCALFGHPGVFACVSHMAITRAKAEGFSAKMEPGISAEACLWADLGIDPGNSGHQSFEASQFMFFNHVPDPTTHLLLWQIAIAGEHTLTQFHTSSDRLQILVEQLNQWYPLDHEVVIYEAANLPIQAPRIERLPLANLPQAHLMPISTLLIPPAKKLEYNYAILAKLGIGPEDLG
As to the kind of experiment: cell-based or functional assay.

The target of series [7] is B1. As to the kind of experiment: enzyme inhibition kinetics (continuous coupled methyltransferase assay, A340); apparent Ki; 5 μM wt SonM, saturating SAM (1 mM), varying concentrations of SonA and of the inhibitor (SonA-BBD or SonA-2Me); non-linear regression in GraphPad Prism 8. The note with it: both partners purified.

In the case of B1, in series [1], the “stoichiometry N” value was determined as 2.

B2: unmethylated SonA precursor peptide (SonA-0Me), his6-tagged (natural protein, Shewanella oneidensis MR-1, UniProt Q8EGW2 1-71, looked up)
chain: MSGLSDFFTQLGQDAQLMEDYKQNPEAVMRAHGLTDEQINAVMTGDMEKLKTLSGDSSYQSYLVISHGNGD
Turning to B2, the “apparent KM for SonA, coupled methyltransferase kinetics assay, saturating SAM” value in series [2] stood at 7.6 µM; in series [3] it was 18 µM; in series [4] it was 9.6 µM; in series [5], 8.2 µM; in series [6], 6.2 µM.

B3: doubly α-N-methylated SonA precursor peptide (SonA-2Me), his6-tagged (natural protein, Shewanella oneidensis MR-1, UniProt Q8EGW2 1-71, looked up)
chain: MSGLSDFFTQLGQDAQLMEDYKQNPEAVMRAHGLTDEQINAVMTGDMEKLKTLSGDSSYQSYLVISHGNGD
modifications: N-methyl-L-leucine (MLE) at 63; N-methyl-L-isoleucine (IML) at 65 (backbone α-N-methylations)
notes: SonA (SO1479), borosin precursor peptide of Shewanella oneidensis MR-1; BBD leader 1-53, linker 54-61, core peptide 62-71; also called doubly methylated SonA; SO1479; source: E. coli BL21(DE3), co-expressed from pET28b with SonM, purified (Ni-NTA or HisTrap, Superdex 200 SEC)
Turning to B3, the Ki in series [7] was found to be 160 µM.

B4: SonA borosin binding domain only construct (SonA-BBD; 1-55) (domain or fragment, Shewanella oneidensis MR-1, UniProt Q8EGW2 1-55, looked up)
chain: MSGLSDFFTQLGQDAQLMEDYKQNPEAVMRAHGLTDEQINAVMTGDMEKLKTLSG
notes: SonA (SO1479) of Shewanella oneidensis MR-1, helical bundle composed of the first 55 amino acids (1-55); The his6 tag is stated for the individual construct; for the co-expression construct it is surmised from the template plasmid pMF1181; also called BBD-SonA; his6-SonA-BBD
Regarding B4, in series [7], the Ki turned out to be 3.9 µM.
